Reference: patent publication US20180057581A1 (MorphoSys, published 2018)

T1: human M-CSF (human, UniProt P09603 33-255, limits assumed)
T1 construct: also called M-CSF (human); CSF-1
T1 sequence: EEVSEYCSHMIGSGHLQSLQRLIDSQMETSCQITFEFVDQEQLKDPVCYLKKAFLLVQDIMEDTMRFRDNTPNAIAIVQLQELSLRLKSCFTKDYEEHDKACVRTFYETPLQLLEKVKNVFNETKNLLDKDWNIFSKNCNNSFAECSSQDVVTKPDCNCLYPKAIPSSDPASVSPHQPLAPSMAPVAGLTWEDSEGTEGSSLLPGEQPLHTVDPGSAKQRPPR

T2: Recombinant cynomolgus monkey sgM-CSF (cynomolgus (Macaca fascicularis), UniProt P09603 33-255 (human entry), limits assumed)
T2 construct: used also where only 'cynomolgus M-CSF' is printed (ELISA result, SET); also called cynomolgus sgM-CSF; cyno sgM-CSF
T2 chain: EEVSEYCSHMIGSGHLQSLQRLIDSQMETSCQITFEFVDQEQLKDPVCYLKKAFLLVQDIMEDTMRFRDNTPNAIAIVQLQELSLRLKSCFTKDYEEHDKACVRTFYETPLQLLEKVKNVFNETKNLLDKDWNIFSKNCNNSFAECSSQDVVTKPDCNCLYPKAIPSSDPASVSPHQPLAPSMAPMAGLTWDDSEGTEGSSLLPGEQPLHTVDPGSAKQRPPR

T3: Recombinant human sgM-CSF (human, UniProt P09603 33-255)
T3 sequence: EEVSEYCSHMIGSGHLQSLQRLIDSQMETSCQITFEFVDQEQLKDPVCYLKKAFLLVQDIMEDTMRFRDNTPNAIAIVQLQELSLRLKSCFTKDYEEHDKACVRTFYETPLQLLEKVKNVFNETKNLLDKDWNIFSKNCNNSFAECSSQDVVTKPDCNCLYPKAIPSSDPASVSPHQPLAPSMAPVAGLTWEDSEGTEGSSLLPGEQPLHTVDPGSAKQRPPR

T4: human cell-surface M-CSF on stably transfected CHO cells (human, UniProt P09603 33-554)
T4 construct: also called csM-CSF
T4 sequence: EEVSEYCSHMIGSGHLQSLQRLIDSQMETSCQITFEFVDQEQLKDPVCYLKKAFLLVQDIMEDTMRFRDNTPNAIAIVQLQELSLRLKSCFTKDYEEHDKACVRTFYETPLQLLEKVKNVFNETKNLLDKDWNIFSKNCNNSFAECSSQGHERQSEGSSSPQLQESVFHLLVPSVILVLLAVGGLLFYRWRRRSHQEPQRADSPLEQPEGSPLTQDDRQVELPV


Key:
human M-CSF [1] = molecular target: T1, human M-CSF; assay: soluble equilibrium titration (SET), Fab, monovalent
Experimental: The monovalent affinity of the antibodies of the present disclosure was determined by soluble equilibrium titration (Haenel et al. (2005) Anal Biochem 339, 182-4).

human M-CSF [2] = molecular target: T1, human M-CSF; assay: ELISA
Experimental: (§1) BSA was used as a negative control substrate.
(§2) After blocking of plates with 5% skim milk powder in PBS, Fab-containing E. coli lysates, IgG-containing cell culture supernatants or purified IgG or Fab proteins were added. Binding of Fabs or IgGs was detected by F(ab)₂ specific goat anti-human IgG conjugated to alkaline phosphatase (Dianova Cat# 109-055-097; diluted 1:5000) using Attophos fluorescence substrate (Roche, #11681982001). Fluorescence emission at 535 nm was recorded with excitation at 430 nm.

[3] = molecular target: T2, Recombinant cynomolgus monkey sgM-CSF; assay: ELISA
Experimental: as §1, §2

[4] = molecular target: T2, Recombinant cynomolgus monkey sgM-CSF; assay: cell-based or functional assay
[5] = molecular target: T3, Recombinant human sgM-CSF; assay: cell-based or functional assay
[6] = molecular target: T3, Recombinant human sgM-CSF; assay: MSD receptor binding inhibition: 12.5 pM human sgM-CSF preincubated with antibody, binding to coated human CSF1-R-Fc
Experimental: (§3) Complexes were then transferred to 384 well MSD plates coated with 2 μg/ml of the corresponding receptor. Plates were then washed and incubated with the streptavidin/ECL conjugate for 2 h with shaking at room temperature. 35 μl MSD read buffer T with surfactant was then added per well and subsequently measured using MSD Sector Imager 6000.

[7] = molecular target: T4, human cell-surface M-CSF on stably …; assay: FACS, CHO cells stably transfected with M-CSF (n = 3)
[8] = molecular target: T2, Recombinant cynomolgus monkey sgM-CSF; assay: MSD receptor binding inhibition: 12.5 pM cynomolgus sgM-CSF preincubated with antibody, binding to coated human CSF1-R-Fc
Experimental: as §3

Row | Binder | ELISA fluorescence units (human M-CSF [2]) [units] | ELISA fluorescence units [3] [units] | also measured
1 | Satine, Fab (Fab, V domains shown) VH: EVQLVESGGGLVKPGGSLRLSCAASGFTFSIYAMSWVRQAPGKGLEWVGRIKSNADGGTTEYAAPVKGRFTISRDDSKNTLYLQMNSLKTEDTAVYYCARMRYYSDLYFDPWGQGTLVTVSS VL: SYELTQPPSVSVSPGQTASITCSGDKLGQKYVSWYQQKPGQSPVLVISQDRKRPSGIPERFSGSNSGNTATLTISGTQAEDEADYYCQTWTHLQWVFGGGTKLTVLG |  |  | Kd (human M-CSF [1]): < 0.002 nM
2 | Satine (format not stated) (antibody, V domains shown) VH: EVQLVESGGGLVKPGGSLRLSCAASGFTFSIYAMSWVRQAPGKGLEWVGRIKSNADGGTTEYAAPVKGRFTISRDDSKNTLYLQMNSLKTEDTAVYYCARMRYYSDLYFDPWGQGTLVTVSS VL: SYELTQPPSVSVSPGQTASITCSGDKLGQKYVSWYQQKPGQSPVLVISQDRKRPSGIPERFSGSNSGNTATLTISGTQAEDEADYYCQTWTHLQWVFGGGTKLTVLG | > 35000 | > 35000 | 
3 | 8.10.3F, IgG2 (antibody, V domains shown, tested as IgG2; also called 8.10.F3) VH: EVQLVESGGGLVQPGGSLRLSCAASGFTFSSFSMTWVRQAPGKGLEWVSYISSRSSTISYADSVKGRFTISRDNAKNSLYLQMNSLRDEDTAVYYCARDPLLAGATFFDYWGQGTLVTVSS VL: not shown |  |  | IC50, inhibition of M-NFS-60 proliferation induced by recombinant cynomolgus M-CSF (9.5 pM) [4]: 84.6 pM; IC50, inhibition of M-NFS-60 proliferation induced by recombinant human M-CSF (9.5 pM) [5]: 71.1 pM; IC50 [6]: 0.0314 nM; EC50 [7]: 23.2 nM; IC50 [8]: 0.0207 nM
4 | 8.10.3F, IgG1_D265A (antibody, V domains shown, Prior art antibody; tested as IgG1 with D265A in the Fc (EU index); also called 8.10.F3) VH: EVQLVESGGGLVQPGGSLRLSCAASGFTFSSFSMTWVRQAPGKGLEWVSYISSRSSTISYADSVKGRFTISRDNAKNSLYLQMNSLRDEDTAVYYCARDPLLAGATFFDYWGQGTLVTVSS VL: not shown |  |  | IC50, inhibition of M-NFS-60 proliferation induced by recombinant cynomolgus M-CSF (9.5 pM) [4]: 16.5 pM; IC50, inhibition of M-NFS-60 proliferation induced by recombinant human M-CSF (9.5 pM) [5]: 14.9 pM; IC50 [6]: 0.0192 nM; EC50 [7]: 8.9 nM; IC50 [8]: 0.0146 nM
5 | 8.10.3F, Fab (Fab, V domains shown, Prior art antibody; also called 8.10.F3) VH: EVQLVESGGGLVQPGGSLRLSCAASGFTFSSFSMTWVRQAPGKGLEWVSYISSRSSTISYADSVKGRFTISRDNAKNSLYLQMNSLRDEDTAVYYCARDPLLAGATFFDYWGQGTLVTVSS VL: not shown |  |  | Kd (human M-CSF [1]): 0.038 nM
6 | Madeleine (format not stated) (antibody, V domains shown) VH: QVQLQQSGPGLVKPSQTLSLTCAISGDSVSSNSAAWNWIRQSPSRGLEWLGRTYYRSKWKKEYAQSVKSRITINPDTSKNQFSLQLNSVTPEDTAVYYCARDRYYYSAFDYWGQGTLVTVSS VL: QSALTQPASVSGSPGQSITISCTGTSSDVGGYNSVSWYQQHPGKAPKLMIYAVSNRPSGVSNRFSGSKSGNTASLTISGLQAEDEADYYCASYDERFTRVFGGGTKLTVLG | > 35000 | > 35000 | 
7 | Blanche (format not stated) (antibody, V domains shown) VH: QVQLQQSGPGLVKPSQTLSLTCAISGDSVSSNSAAWNWIRQSPSRGLEWLGRTYYRSKWKHEYAMSVKSRITINPDTSKNQFSLQLNSVTPEDTAVYYCARDRYYYSAFDYWGQGTLVTVSS VL: DIALTQPASVSGSPGQSITISCTGTSSDVGGYNSVSWYQQHPGKAPKLMIYAVSNRPSGVSNRFSGSKSGNTASLTISGLQAEDEADYYCASYDERFTRVFGGGTKLTVLG | > 35000 | > 35000 | 
8 | HeRX1-10G1, Fab (Fab, V domains shown, Prior art antibody) VH: QVQLQESGPGLVKPSQTLSLTCTVSDYSITSDYAWNWIRQFPGKGLEWMGYISYSGSTSYNPSLKSRITISRDTSKNQFSLQLNSVTAADTAVYYCASFDYAHAMDYWGQGTTVTVSS VL: DIVLTQSPAFLSVTPGEKVTFTCQASQSIGTSIHWYQQKTDQAPKLLIKYASESISGIPSRFSGSGSGTDFTLTISSVEAEDAADYYCQQINSWPTTFGGGTKLEIKR |  |  | Kd (human M-CSF [1]): > 1 nM

Further lines, with some results ahead:

Row | ELISA fluorescence units (human M-CSF [2]) [units] | ELISA fluorescence units [3] [units] | Binder | also measured
9 | > 35000 | > 35000 | Romaine (format not stated) (antibody, V domains shown) VH: EVQLVESGGGLVKPGGSLRLSCAASGFTFSIYAMSWVRQAPGKGLEWVGRIKSNADGGTTEYAAPVKGRFTISRDDSKNTLYLQMNSLKTEDTAVYYCARMRYYSDLYFDPWGQGTLVTVSS VL: DIELTQPPSVSVSPGQTASITCSGDAIGSKYVHWYQQKPGQAPVLVISKDNKRPSGIPERFSGSNSGNTATLTISGTQAEDEADYYCQTATVSSYWWVFGGGTKLTVLG | 
10 | > 35000 | > 35000 | Servane (format not stated) (antibody, V domains shown) VH: EVQLVESGGGLVKPGGSLRLSCAASGFTFSTYAISWVRQAPGKGLEWVGFIKSKHNSGTTEYAAPVKGRFTISRDDSKNTLYLQMNSLKTEDTAVYYCARMRYYSDLYFDPWGQGTLVTVSS VL: SYELTQPPSVSVSPGQTASITCSGDKLGQKYVSWYQQKPGQSPVLVISQDRKRPSGIPERFSGSNSGNTATLTISGTQAEDEADYYCQTWTHLQWVFGGGTKLTVLG | 
11 | > 35000 | > 35000 | Caline (format not stated) (antibody, V domains shown) VH: QVQLQQSGPGLVKPSQTLSLTCAISGDSVSSNSAAWNWIRQSPSRGLEWLGRTYYRSKWKHEYAMSVKSRITINPDTSKNQFSLQLNSVTPEDTAVYYCARDRYYYSAFDYWGQGTLVTVSS VL: QSALTQPASVSGSPGQSITISCTGTSSDVGGYNSVSWYQQHPGKAPKLMIYAVSNRPSGVSNRFSGSKSGNTASLTISGLQAEDEADYYCASYDERFTRVFGGGTKLTVLG | 
12 | > 35000 | > 35000 | Maelle (format not stated) (antibody, V domains shown) VH: QVQLQQSGPGLVKPSQTLSLTCAISGESVSTSSAAWNWIRQSPSRGLEWLGRTYYRSKWKKEYAQSVKSRITINPDTSKNQFSLQLNSVTPEDTAVYYCARDRYYYSAFDYWGQGTLVTVSS VL: QSALTQPASVSGSPGQSITISCTGTSSDVGGYNSVSWYQQHPGKAPKLIIYAVSNRPSGVSNRFSGSKSGNTASLTISGLQAEDEADYYCASYDERFTRVFGGGTKLTVLG | 
13 | > 35000 | > 35000 | Laurine (format not stated) (antibody, V domains shown) VH: QVQLQQSGPGLVKPSQTLSLTCAISGDSVSSNSAAWNWIRQSPSRGLEWLGRTYYRSKWKKEYAQSVKSRITINPDTSKNQFSLQLNSVTPEDTAVYYCARDRYYYSAFDYWGQGTLVTVSS VL: DIALTQPASVSGSPGQSITISCTGTSSDVGGYNSVSWYQQHPGKAPKLMIYAVSNRPSGVSNRFSGSKSGNTASLTISGLQAEDEADYYCASYDERFTRVFGGGTKLTVLG | 
14 | > 35000 | > 35000 | Meriem (format not stated) (antibody, V domains shown) VH: QVQLQQSGPGLVKPSQTLSLTCAISGDSVSTSSAAWNWIRQSPSRGLEWLGRTYYRSKWKKEYAQSVKSRITINPDTSKNQFSLQLNSVTPEDTAVYYCARDRYYYSAFDYWGQGTLVTVSS VL: QSALTQPASVSGSPGQSITISCTGTSSDVGGYNSVSWYQQHPGKAPKLIIYAVSNRPSGVSNRFSGSKSGNTASLTISGLQAEDEADYYCASYDERFTRVFGGGTKLTVLG | 
15 | > 35000 | > 35000 | Celine (format not stated) (antibody, V domains shown) VH: QVQLQQSGPGLVKPSQTLSLTCAISGDSVSTSSAAWNWIRQSPSRGLEWLGRTYYRSKWKHEYAVSVKSRITINPDTSKNQFSLQLNSVTPEDTAVYYCARDRYYYSAFDYWGQGTLVTVSS VL: QSALTQPASVSGSPGQSITISCTGTSSDVGGYNSVSWYQQHPGKAPKLIIYAVSNRPSGVSNRFSGSKSGNTASLTISGLQAEDEADYYCASYDERFTRVFGGGTKLTVLG | 
